Substitutions are numbered along the chain they refer to. One block for each binder: values may come before it.
What was measured:
Human c-Met-Flis-Fc ECD [1] = molecular target: T1, Human c-Met-Flis-Fc ECD (human); test: ELISA, coated ECD-Fc, antibody 0.357 ng/mL
T1 construct: also called human c-Met extracellular domain (ECD)-Fc-Flis fusion; Human cMet-ECD-Fc-Flis
Experimental: (§1) Wells of 96-well EIA/RIA high binding plates (Costar, #2592) are coated with 100 μL of 1 μg/mL human c-Met extracellular domain (ECD)-Fc-Flis fusion (SEQ ID NO:72), RON-ECD-Fc (R&D Systems, #1947-MS), or PlexinA2-ECD-Fc (Abnova, Taipei, Taiwan #H00005362-P01) in coating buffer (BioFX Labs, # COAT-1000-01) overnight at 4° C. […] After the plates are washed, 100 μL/well of substrate solution (BioFx, #TMBW-1000-01) are added and the plates are incubated for 10 min. at room temperature. 100 μL/well of stop solution (BioFx, # LSTP-1000-01) are added to stop the reaction. The colorimetric signals are developed and read at 450 nm using a SpectraMax 190 plate reader (Molecular Devices, Sunnyvale, Calif.). c-Met antibody binding to c-Met, RON and PlexinA2 ECDs is proportional to color signal production.

Human c-Met-Flis-Fc ECD [2] = molecular target: T1, Human c-Met-Flis-Fc ECD; test: ELISA, coated ECD-Fc, antibody 0.060 ng/mL
Experimental: as §1

Human c-Met-Flis-Fc ECD [3] = molecular target: T1, Human c-Met-Flis-Fc ECD; test: ELISA, coated ECD-Fc, antibody 2777.778 ng/mL
Experimental: as §1

Human c-Met-Flis-Fc ECD [4] = molecular target: T1, Human c-Met-Flis-Fc ECD; test: ELISA, coated ECD-Fc, antibody 462.963 ng/mL
Experimental: as §1

Human c-Met-Flis-Fc ECD [5] = molecular target: T1, Human c-Met-Flis-Fc ECD; test: ELISA, coated ECD-Fc, antibody 0.010 ng/mL
Experimental: as §1

Human c-Met-Flis-Fc ECD [6] = molecular target: T1, Human c-Met-Flis-Fc ECD; test: ELISA, coated ECD-Fc, antibody 16666.667 ng/mL
Experimental: as §1

Human c-Met-Flis-Fc ECD [7] = molecular target: T1, Human c-Met-Flis-Fc ECD; test: ELISA, coated ECD-Fc, antibody 12.860 ng/mL
Experimental: as §1

Human c-Met-Flis-Fc ECD [8] = molecular target: T1, Human c-Met-Flis-Fc ECD; test: ELISA, coated ECD-Fc, antibody 77.160 ng/mL
Experimental: as §1

Rat c-Met-Flis-Fc ECD = molecular target: T2, Rat c-Met-Flis-Fc ECD (rat); test: SPR (Biacore), antibody captured
T2 construct: also called Rat cMet-ECD-Fc-Flis; rat c-Met ECD
T2 sequence (chain, as listed by the source limits assumed): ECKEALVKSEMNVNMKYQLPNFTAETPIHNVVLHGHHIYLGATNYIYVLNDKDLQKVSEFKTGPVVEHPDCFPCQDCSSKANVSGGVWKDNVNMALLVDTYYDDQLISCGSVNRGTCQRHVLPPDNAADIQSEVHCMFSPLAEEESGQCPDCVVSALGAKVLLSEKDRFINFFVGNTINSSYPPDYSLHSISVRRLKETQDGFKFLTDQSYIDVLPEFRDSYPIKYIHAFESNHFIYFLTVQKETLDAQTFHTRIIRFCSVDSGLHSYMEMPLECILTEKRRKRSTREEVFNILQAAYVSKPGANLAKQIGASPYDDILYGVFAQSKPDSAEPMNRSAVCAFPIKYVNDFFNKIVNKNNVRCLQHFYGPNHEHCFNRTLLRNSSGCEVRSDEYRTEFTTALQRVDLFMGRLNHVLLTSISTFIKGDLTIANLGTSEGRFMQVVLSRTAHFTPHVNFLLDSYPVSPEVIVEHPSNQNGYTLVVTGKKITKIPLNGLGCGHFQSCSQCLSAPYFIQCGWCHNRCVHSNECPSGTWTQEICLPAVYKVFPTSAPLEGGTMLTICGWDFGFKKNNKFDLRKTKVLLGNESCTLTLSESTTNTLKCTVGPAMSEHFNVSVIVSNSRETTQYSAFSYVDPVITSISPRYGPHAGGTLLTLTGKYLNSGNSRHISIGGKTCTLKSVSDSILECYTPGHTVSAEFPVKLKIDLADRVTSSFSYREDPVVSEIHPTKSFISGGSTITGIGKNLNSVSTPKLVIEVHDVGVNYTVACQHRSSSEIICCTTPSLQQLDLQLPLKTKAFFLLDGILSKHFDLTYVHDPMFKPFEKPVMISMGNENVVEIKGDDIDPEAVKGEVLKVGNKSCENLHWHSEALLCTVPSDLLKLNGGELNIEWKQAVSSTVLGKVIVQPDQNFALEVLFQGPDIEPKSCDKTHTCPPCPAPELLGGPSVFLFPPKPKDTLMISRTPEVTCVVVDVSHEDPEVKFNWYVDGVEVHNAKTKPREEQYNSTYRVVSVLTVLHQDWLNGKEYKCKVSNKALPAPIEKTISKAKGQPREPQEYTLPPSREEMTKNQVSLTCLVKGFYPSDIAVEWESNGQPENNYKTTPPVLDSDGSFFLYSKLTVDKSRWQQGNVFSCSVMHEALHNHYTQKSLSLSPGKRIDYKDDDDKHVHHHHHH
Experimental: (§2) A Biacore® 2000 instrument is used to measure the binding kinetics of c-Met antibodies to human, cynomolgus monkey, and rat c-Met ECDs. Measurements are performed at 25° C. Samples are dissolved in HBS-EP buffer (150 mM sodium chloride, 3 mM EDTA, 0.005% (w/v) surfactant P-20, and 10 mM N-2-hydroxyethylpiperazine-N′-2-ethanesulfonic acid (HEPES) at pH 7.4; #BR-1001-88).
(§3) Binding is evaluated using multiple cycles. Each cycle is performed at a flow rate of 50 μL/min., and consists of the following steps: injection of about 10 μL of a c-Met antibody at 10 μg/mL aiming at a capture of 40-100 RUs, injection of 250 μL of human, cynomolgus, or rat c-Met-Flis-Fc ECD (starting at 100 nM and using two-fold serial dilutions for each cycle) followed by 20 min. for dissociation, and regeneration using about 30 μL of 10 mM glycine hydrochloride, pH 1.5. Association and dissociation rates for each cycle are evaluated using a “1:1 (Langmuir) binding” model in the BIAevaluation software, version 4.1.

Human c-Met-Flis-Fc ECD [9] = molecular target: T1, Human c-Met-Flis-Fc ECD; test: SPR Biacore, antibody captured, ECD-Fc analyte, 1:1 model
Experimental: as §2, §3

[10] = molecular target: T3, Cynomolgus Monkey c-Met-Flis-Fc ECD (cynomolgus monkey); test: as above
T3 construct: also called Cynomolgus Monkey cMet-ECD-Fc-Flis; cynomolgus monkey c-Met ECD
T3 sequence (chain, as listed by the source limits assumed): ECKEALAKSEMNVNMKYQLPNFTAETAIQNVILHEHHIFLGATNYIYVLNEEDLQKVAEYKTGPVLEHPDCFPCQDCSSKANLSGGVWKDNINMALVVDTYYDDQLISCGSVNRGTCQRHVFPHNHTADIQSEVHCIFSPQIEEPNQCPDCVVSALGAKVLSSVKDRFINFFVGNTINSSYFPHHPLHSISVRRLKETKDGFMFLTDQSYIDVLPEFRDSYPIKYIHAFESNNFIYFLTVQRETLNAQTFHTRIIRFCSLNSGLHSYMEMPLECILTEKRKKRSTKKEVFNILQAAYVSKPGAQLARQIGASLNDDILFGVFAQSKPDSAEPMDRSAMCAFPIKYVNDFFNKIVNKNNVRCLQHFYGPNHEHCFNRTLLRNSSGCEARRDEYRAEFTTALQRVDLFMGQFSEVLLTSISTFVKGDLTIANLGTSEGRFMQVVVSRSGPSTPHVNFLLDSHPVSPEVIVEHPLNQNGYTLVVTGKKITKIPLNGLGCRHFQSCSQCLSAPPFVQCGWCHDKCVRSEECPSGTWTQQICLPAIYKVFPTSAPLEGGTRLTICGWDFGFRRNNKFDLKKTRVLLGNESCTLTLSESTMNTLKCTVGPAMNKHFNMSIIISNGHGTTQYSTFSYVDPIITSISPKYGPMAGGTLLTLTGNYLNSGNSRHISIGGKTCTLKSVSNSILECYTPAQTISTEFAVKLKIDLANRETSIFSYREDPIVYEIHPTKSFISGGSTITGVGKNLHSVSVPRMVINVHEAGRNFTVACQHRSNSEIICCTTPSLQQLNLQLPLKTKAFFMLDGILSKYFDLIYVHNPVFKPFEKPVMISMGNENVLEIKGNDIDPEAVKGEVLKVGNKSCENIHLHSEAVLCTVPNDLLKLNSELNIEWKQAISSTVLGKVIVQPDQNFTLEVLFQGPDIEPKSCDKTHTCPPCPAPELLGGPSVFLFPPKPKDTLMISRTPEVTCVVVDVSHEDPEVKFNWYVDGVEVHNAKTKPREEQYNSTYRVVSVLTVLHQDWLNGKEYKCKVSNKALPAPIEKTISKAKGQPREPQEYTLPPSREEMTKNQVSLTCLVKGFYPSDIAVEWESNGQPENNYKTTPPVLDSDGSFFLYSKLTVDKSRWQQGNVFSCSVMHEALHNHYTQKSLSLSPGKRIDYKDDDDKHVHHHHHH
Experimental: as §2, §3

Human c-Met-Flis-Fc ECD [11] = molecular target: T1, Human c-Met-Flis-Fc ECD; test: ELISA, coated ECD-Fc, antibody 0.000 ng/mL
Experimental: as §1

Human c-Met-Flis-Fc ECD [12] = molecular target: T1, Human c-Met-Flis-Fc ECD; test: ELISA, coated ECD-Fc, antibody 0.002 ng/mL
Experimental: as §1

mouse c-Met ECD = molecular target: T4, mouse c-Met ECD (mouse, UniProt P16056 25-931); test: ELISA, coated ECD (data not shown)
T4 construct: extracellular domain
T4 sequence (P16056 25-931): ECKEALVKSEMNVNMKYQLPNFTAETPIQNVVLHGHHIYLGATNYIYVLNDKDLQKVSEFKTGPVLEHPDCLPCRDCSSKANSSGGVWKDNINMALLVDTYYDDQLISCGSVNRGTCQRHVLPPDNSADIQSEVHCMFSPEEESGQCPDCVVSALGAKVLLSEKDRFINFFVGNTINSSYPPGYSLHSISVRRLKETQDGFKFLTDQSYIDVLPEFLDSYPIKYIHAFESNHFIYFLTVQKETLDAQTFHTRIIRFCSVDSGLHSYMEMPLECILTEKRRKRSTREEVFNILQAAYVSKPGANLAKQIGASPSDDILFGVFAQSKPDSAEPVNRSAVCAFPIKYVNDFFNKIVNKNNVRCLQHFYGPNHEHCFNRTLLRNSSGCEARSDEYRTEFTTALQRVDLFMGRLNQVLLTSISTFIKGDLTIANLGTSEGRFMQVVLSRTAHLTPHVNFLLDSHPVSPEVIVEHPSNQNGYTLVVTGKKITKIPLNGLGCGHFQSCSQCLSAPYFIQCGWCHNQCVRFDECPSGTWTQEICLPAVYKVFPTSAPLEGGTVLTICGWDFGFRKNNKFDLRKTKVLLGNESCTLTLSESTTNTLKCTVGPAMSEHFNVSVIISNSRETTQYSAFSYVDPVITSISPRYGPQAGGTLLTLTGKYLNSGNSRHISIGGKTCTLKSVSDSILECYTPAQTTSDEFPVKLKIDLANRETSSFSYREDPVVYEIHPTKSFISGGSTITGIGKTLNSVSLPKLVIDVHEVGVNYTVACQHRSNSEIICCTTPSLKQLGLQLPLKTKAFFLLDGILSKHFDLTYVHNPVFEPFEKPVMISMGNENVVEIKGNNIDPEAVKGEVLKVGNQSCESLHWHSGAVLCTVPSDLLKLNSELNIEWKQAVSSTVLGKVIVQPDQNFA

Human c-Met-Flis-Fc ECD [13] = molecular target: T1, Human c-Met-Flis-Fc ECD; test: ELISA, coated ECD-Fc, antibody 2.143 ng/mL
Experimental: as §1

Human c-Met-Flis-Fc ECD [14] = molecular target: T1, Human c-Met-Flis-Fc ECD; test: ELISA, coated ECD-Fc, antibody 100000.000 ng/mL
Experimental: as §1

T1 sequence (chain, as listed by the source limits assumed): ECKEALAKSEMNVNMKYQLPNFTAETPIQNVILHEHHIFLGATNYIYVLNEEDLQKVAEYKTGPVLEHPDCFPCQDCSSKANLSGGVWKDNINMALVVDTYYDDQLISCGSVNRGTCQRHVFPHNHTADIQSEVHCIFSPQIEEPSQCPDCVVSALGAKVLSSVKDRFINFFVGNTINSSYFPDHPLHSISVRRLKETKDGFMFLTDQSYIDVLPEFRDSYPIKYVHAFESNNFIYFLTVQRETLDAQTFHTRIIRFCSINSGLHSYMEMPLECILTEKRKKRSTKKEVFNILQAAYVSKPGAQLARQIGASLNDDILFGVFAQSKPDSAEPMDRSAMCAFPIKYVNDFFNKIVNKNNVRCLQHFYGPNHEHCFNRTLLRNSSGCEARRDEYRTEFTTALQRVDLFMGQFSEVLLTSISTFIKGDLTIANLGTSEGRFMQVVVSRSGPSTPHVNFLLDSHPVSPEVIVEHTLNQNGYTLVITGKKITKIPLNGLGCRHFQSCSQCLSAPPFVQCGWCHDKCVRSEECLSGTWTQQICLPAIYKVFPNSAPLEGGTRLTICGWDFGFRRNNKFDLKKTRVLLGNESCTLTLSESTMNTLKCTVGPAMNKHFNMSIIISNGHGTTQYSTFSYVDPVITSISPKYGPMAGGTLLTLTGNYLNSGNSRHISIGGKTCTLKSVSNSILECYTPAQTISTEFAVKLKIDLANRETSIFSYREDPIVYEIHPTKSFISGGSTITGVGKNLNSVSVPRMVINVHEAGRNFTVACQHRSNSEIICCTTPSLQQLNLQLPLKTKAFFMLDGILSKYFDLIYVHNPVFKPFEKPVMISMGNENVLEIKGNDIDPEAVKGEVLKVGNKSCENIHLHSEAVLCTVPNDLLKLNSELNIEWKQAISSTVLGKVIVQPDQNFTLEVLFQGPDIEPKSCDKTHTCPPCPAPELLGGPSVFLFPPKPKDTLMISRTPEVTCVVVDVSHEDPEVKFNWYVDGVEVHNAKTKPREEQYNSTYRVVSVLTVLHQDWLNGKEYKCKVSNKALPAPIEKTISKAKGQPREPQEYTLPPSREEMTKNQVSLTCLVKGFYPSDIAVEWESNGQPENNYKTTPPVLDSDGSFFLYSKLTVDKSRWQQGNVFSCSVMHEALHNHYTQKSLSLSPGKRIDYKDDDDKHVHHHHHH

- Average A450 nm (Human c-Met-Flis-Fc ECD [1]): 0.902 A450 nm
- Average A450 nm (Human c-Met-Flis-Fc ECD [2]): 0.484 A450 nm
- Average A450 nm (Human c-Met-Flis-Fc ECD [3]): 4 A450 nm
- Average A450 nm (Human c-Met-Flis-Fc ECD [4]): 4 A450 nm
- Average A450 nm (Human c-Met-Flis-Fc ECD [5]): 0.317 A450 nm
- Average A450 nm (Human c-Met-Flis-Fc ECD [6]): 4 A450 nm
- Average A450 nm (Human c-Met-Flis-Fc ECD [7]): 4 A450 nm
- Average A450 nm (Human c-Met-Flis-Fc ECD [8]): 4 A450 nm
- binding result (Rat c-Met-Flis-Fc ECD): no binding
- Kd (Human c-Met-Flis-Fc ECD [9]): < 100 pM
- Kd [10]: < 200 pM
- Average A450 nm (Human c-Met-Flis-Fc ECD [11]): 0.3 A450 nm
- Average A450 nm (Human c-Met-Flis-Fc ECD [12]): 0.317 A450 nm
- binding result (mouse c-Met ECD): no binding (tested: 100 nM)
- Average A450 nm (Human c-Met-Flis-Fc ECD [13]): 2.86 A450 nm
- Average A450 nm (Human c-Met-Flis-Fc ECD [14]): 4 A450 nm
B1: C8-H241 (antibody, human IgG2, kappa, V domains shown)
VH: QVQLVQSGAEVKKPGASVKVSCKASGYTFTDYYMHWVRQAPGQGLEWMGRVNPNRRGTTYNQKFEGRVTMTTDTSTSTAYMELRSLRSDDTAVYYCARANWLDYWGQGTTVTVSS
VL: DIQMTQSPSSLSASVGDRVTITCSVSSSVSSIYLHWYQQKPGKAPKLLIYSTSNLASGVPSRFSGSGSGTDFTLTISSLQPEDFATYYCQVYSGYPLTFGGGTKVEIKR
notes: Called IgG4, kappa; also called Mab C8-H241

- Average A450 nm (Human c-Met-Flis-Fc ECD [1]): 0.907 A450 nm
- Average A450 nm (Human c-Met-Flis-Fc ECD [2]): 0.446 A450 nm
- Average A450 nm (Human c-Met-Flis-Fc ECD [3]): 4 A450 nm
- Average A450 nm (Human c-Met-Flis-Fc ECD [4]): 4 A450 nm
- Average A450 nm (Human c-Met-Flis-Fc ECD [5]): 0.374 A450 nm
- Average A450 nm (Human c-Met-Flis-Fc ECD [6]): 4 A450 nm
- Average A450 nm (Human c-Met-Flis-Fc ECD [7]): 4 A450 nm
- Average A450 nm (Human c-Met-Flis-Fc ECD [8]): 4 A450 nm
- binding result (Rat c-Met-Flis-Fc ECD): no binding
- Kd (Human c-Met-Flis-Fc ECD [9]): 300 pM
- koff (Human c-Met-Flis-Fc ECD [9]): 3e-05 s⁻¹
- kon (Human c-Met-Flis-Fc ECD [9]): 110000 M⁻¹ s⁻¹
- Kd [10]: < 100 pM
- koff [10]: < 1e-05 s⁻¹
- kon [10]: 103000 M⁻¹ s⁻¹
- Average A450 nm (Human c-Met-Flis-Fc ECD [11]): 0.335 A450 nm
- Average A450 nm (Human c-Met-Flis-Fc ECD [12]): 0.369 A450 nm
- binding result (mouse c-Met ECD): no binding (tested: 100 nM)
- Average A450 nm (Human c-Met-Flis-Fc ECD [13]): 2.89 A450 nm
- Average A450 nm (Human c-Met-Flis-Fc ECD [14]): 4 A450 nm
B2: C8-co-16 (antibody, human IgG2, kappa, V domains shown)
VH: B1 VH with N54Y, R56G, G57S, W101I
VL: B1 VL with S30R, S93R
notes: Called IgG4, kappa
